Reference: patent US20220204630A1 (SUNSHINE LAKE PHARMA, published 2022)
Values belong to the binder of their own block, whether it stands above or below them.

Key:
[1] = molecular target: T1, TrkA protein on HEK-293T-TrkA cells or NIH-3T3-TrkA cells (human, UniProt P04629 33-796); test: cell-based or functional assay
[2] = molecular target: T1, TrkA protein on HEK-293T-TrkA cells or …; test: flow cytometry on HEK-293T-TrKA cells
From the text: (§1) In FIG. 7, the EC₅₀ (half-binding concentration) value reflects the affinity of the antibody. The smaller the EC₅₀ value, the higher the affinity of the antibody.

[3] = molecular target: T2, Mouse-TrKA receptor on the surface of HEK293T-Mouse-TrKA cells (mouse, UniProt Q3UFB7 34-799); test: flow cytometry on HEK293T-Mouse-TrKA cells
T2 construct: whole, on cells; also called Mouse-TrkA protein on HEK293T-Mouse-TrkA cells
T2 sequence (Q3UFB7 34-799): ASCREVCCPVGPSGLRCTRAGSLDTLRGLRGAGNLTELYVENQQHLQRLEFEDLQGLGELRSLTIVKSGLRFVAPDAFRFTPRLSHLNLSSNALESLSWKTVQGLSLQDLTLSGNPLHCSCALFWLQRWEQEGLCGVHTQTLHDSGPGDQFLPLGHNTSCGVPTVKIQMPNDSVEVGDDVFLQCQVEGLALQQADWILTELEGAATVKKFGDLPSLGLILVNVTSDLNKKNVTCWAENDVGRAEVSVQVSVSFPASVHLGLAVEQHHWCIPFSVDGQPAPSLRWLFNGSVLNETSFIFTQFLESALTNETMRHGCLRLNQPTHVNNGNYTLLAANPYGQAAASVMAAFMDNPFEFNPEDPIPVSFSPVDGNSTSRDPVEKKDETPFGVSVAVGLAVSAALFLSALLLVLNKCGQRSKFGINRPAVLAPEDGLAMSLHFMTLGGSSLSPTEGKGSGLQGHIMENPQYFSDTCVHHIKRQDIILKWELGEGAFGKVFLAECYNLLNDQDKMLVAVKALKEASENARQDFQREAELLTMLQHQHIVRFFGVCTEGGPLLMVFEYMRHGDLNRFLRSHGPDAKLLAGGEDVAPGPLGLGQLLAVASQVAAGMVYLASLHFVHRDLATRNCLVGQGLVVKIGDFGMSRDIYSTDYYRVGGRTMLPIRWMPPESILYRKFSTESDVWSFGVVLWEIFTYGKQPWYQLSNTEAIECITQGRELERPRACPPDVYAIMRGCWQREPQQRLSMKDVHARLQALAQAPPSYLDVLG
Procedure: The test antibody 23E12 samples were diluted with PBS buffer to 11 concentration gradients (20 μg/mL, 10 μg/mL, 5 μg/mL, 2.5 μg/mL, 1.25 μg/mL, 0.625 μg/mL, 0.313 μg/mL, 0.156 μg/mL, 0.078 μg/mL, 0.039 μg/mL, 0.019 μg/mL), and the binding of the test antibody to the Mouse-TrKA receptor on the surface of HEK293T-Mouse-TrKA cells at each concentration gradient was detected by flow cytometry. The binding ability of the antibody to Mouse-TrKA protein was tested. In FIG. 10, the EC₅₀ (half the binding concentration) value reflects the binding capacity of the antibody. The smaller the EC₅₀ value, the stronger the binding capacity of the antibody. […] It can be seen that the test antibody 23E12 has a good binding ability with the Mouse-TrKA receptor on the surface of HEK293T-Mouse-TrKA cells.

[4] = molecular target: T3, TrKA receptor protein coated in ELISA (Examples 11 and 16) (human, UniProt P04629 33-423, limits assumed); test: ELISA plateau, antibody up to 20 µg/mL on TrKA
T3 construct: also called Human-TrKA
T3 sequence (P04629 33-423 limits assumed): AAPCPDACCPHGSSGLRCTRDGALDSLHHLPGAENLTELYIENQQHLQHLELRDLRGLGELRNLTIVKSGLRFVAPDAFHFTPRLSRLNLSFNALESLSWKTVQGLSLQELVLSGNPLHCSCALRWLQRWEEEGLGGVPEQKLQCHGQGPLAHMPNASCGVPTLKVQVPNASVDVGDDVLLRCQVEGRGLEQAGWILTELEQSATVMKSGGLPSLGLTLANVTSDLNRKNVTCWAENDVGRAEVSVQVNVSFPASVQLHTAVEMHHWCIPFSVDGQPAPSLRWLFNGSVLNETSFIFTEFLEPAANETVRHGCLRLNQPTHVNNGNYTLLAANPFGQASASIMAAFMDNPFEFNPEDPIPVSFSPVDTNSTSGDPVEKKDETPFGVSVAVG
Procedure: The TrkA receptor family belongs to receptor tyrosine kinases (RTKs), including TrkA, TrkB, and TrkC, which have high homology. TrkA is a receptor tyrosine kinase of nerve growth factor (NGF) that selectively binds to NGF and is a functional receptor for NGF. In addition to the high-affinity receptor TrkA, NGF can also bind to its low-affinity receptor p75. In the test, the binding of test antibodies at different concentrations (20 μg/mL, 10 μg/mL, 5 μg/mL, 2.5 μg/mL, 1.25 μg/mL, 0.625 μg/mL, 0.313 μg/mL, 0.156 μg/mL, 0.078 μg/mL, 0.039 μg/mL, 0.019 μg/mL) to TrKA, TrKB, TrKC, and P75 respectively was detected by the ELISA method, and the specificity of the test antibody binding to the target TrKA was evaluated. In the FIG. 8, at a certain antibody concentration, the OD₄₅₀ value reflects the binding strength of the antibody to the protein. The larger the reading, the stronger the binding of the antibody to the protein. […] It can be seen that the specificity of the binding of the test antibodies to the target TrKA is very good.

Mouse-TrKA protein = molecular target: T4, Mouse-TrKA protein (mouse, UniProt Q3UFB7 34-420, limits assumed); test: ELISA, antibody titrated on Mouse-TrKA protein, OD 450
T4 construct: also called Mouse-TrKA receptor
T4 sequence (Q3UFB7 34-420 limits assumed): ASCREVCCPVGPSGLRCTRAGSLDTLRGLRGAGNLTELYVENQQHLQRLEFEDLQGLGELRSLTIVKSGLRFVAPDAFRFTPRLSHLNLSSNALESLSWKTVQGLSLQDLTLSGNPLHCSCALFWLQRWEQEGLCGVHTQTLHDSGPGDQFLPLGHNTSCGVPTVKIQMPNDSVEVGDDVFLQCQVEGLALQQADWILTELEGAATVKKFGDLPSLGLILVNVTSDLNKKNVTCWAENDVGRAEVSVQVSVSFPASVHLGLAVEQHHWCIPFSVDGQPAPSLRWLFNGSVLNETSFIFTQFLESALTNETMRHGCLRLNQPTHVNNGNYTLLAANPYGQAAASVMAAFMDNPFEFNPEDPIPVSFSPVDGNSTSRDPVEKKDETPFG
Procedure: Test antibody (23E12, 21E5) samples were diluted with PBS buffer solution to 11 concentration gradients (20 μg/mL, 10 μg/mL, 5 μg/mL, 2.5 μg/mL, 1.25 μg/mL, […], 0.313 μg/mL, 0.156 μg/mL, 0.078 μg/mL, 0.039 μg/mL, 0.019 μg/mL). The binding of the test antibody to the Mouse-TrKA receptor at each concentration gradient was detected by the ELISA method, thus the binding ability of the test antibody to the Mouse-TrKA protein was detected. In FIG. 9, at a certain antibody concentration, the OD₄₅₀ value reflects the binding strength of the antibody to the protein. The larger the reading, the stronger the binding of the antibody to the protein. […] It can be seen that the test antibodies 23E12, 21E5, and Mouse-TrKA protein all have good binding ability.

[5] = molecular target: T1, TrkA protein on HEK-293T-TrkA cells or …; test: flow cytometry, antibody titrated on HEK-293T-TrKA cells, Parent %
From the text: as §1

[6] = molecular target: T5, TRKA protein with a histidine tag (human, UniProt P04629 33-423, limits assumed); test: BLI (Fortebio Octet RED96), His-tagged TRKA on Ni-NTA sensor, antibody 80-2.93 nM
T5 construct: it is put last here only for order; also called TRKA (50 µg/ml, 75 kDa, provided by HEC Labs); not shown: histidine tag
T5 sequence (P04629 33-423 limits assumed): as the sequence (P04629 33-423 limits assumed) above
Procedure: They were added to each well of the sample plate. […] The KD value is the equilibrium dissociation constant between the antibody and its antigen, and the KD value is inversely proportional to the affinity. The KD value is related to the antibody concentration (the amount of antibody required for a particular experiment). The lower the KD value (the lower the concentration), the higher the affinity of the antibody. High-affinity antibodies are generally considered to be in the low nanomolar range (10⁻⁹).

[7] = molecular target: T2, Mouse-TrKA receptor on the surface of …; test: flow cytometry competition on HEK293T-Mouse-TrkA cells; competitor biotinylated Mouse-NGF
Procedure: Mouse-NGF was biotinylated. Mouse-NGF could bind to the extracellular region of Mouse-TrkA protein on HEK293 T-Mouse-TrkA cells, and anti-Mouse-TrkA monoclonal antibody could also bind to the extracellular region of Mouse-TrkA protein on HEK293T-Mouse-TrkA cells. A competitive experiment was designed to detect the binding of Mouse-NGF to the extracellular region of Mouse-TrkA protein on HEK293T-Mouse-TrkA cells under different concentrations (20 μg/mL, 10 μg/mL, 5 μg/mL, 2.5 μg/mL, 1.25 μg/mL, 0.625 μg/mL, 0.313 μg/mL, 0.156 μg/mL, 0.078 μg/mL, 0.039 μg/mL, 0.019 μg/mL) of test antibodies by flow cytometry, thus the inhibition effect of test antibodies on the binding of Mouse-NGF and Mouse-TrKA was investigated. In FIG. 12, the parent % value reflects the Mouse-NGF signal that binds to the extracellular region of the Mouse-TrKA protein on the HEK293T-Mouse-TrkA cell.

[8] = molecular target: T3, TrKA receptor protein coated in ELISA …; test: competition ELISA: antibody titrated against biotinylated NGF binding to TrkA, OD450
[9] = molecular target: T1, TrkA protein on HEK-293T-TrkA cells or …; test: flow cytometry competition: antibody titrated against biotinylated NGF binding to HEK-293T-TrkA cells, % parent

T1 sequence (P04629 33-796): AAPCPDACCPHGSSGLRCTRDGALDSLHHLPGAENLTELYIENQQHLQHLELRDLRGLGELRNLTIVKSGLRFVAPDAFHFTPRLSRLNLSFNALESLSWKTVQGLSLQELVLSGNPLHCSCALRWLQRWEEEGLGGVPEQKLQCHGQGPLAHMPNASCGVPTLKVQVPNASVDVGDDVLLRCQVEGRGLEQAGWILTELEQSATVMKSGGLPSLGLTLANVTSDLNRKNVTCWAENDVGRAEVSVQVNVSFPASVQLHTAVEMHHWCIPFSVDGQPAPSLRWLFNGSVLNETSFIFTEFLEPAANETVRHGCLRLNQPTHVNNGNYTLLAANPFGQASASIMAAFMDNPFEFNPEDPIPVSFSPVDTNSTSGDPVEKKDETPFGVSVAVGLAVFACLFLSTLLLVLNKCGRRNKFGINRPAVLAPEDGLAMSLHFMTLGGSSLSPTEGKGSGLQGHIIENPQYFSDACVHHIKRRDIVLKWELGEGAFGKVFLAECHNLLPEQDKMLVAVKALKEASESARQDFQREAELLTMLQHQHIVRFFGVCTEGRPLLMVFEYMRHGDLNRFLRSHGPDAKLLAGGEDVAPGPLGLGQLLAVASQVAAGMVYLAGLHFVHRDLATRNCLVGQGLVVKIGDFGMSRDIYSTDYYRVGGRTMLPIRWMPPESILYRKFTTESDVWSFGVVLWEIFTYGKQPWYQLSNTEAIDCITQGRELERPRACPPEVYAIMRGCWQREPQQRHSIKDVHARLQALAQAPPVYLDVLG

B1: 23E12 chimeric antibody (antibody, human IgG4 S228P, kappa, F234A L235A, V domains shown)
VH: QVQLQQSGAELVRPGTSVKISCKASGYAFTNYWLGWMKQRPGHGLEWIGDFYPRTGNTFYNENFKGKVTLTADKSSNTAYMQLSSLTSEDSAVYLCARAGTGFDYWGQGTTLTVSS
VL: SIVMTQSPKSMSMSVGERVTLSCKASENVGGYVSWYQQKPDQSPKLLIYGASSRHTGVPDRFTGSGSETDFTLTISSVQAEDLAAYHCGQNYIYPFTFGGGTKLEIKR
notes: expressed in CHO cells
- IC50; p-TrkA level by AlphaLISA in NGF-stimulated NIH3T3-TrkA stable cell line [1]: 0.0537 µg/mL
- EC50 [2]: < 1.5 µg/mL
- EC50 [3]: 0.0801 µg/mL
- OD450 [4]: ~3 OD450
- EC50 (Mouse-TrKA protein): 0.0208 µg/mL
- EC50 [5]: 0.0443 µg/mL
- Kd [6]: 0.057 nM
- koff [6]: 0.000109 s⁻¹
- kon [6]: 1.9e+06 M⁻¹ s⁻¹
- IC50 [7]: 0.0515 µg/mL
- IC50 [8]: 0.213 µg/mL
- IC50 [9]: 0.426 µg/mL

B3: 21E5 chimeric antibody (antibody, human IgG4 S228P, kappa, F234A L235A, V domains shown)
VH: QVQLQQSGAELMKPGASMKISCKATGYTFSTYWIEWVKQRPGHGLEWIGENLPGRHITNYNEKFKGKATFTADTSSNTAYMQLSSLTSEDSAVYYCARGRGTYYFDYWGQGTPLTVSS
VL: DIVMTQAAFSTPVTLGTSASISCRSSQSLLHSNGITYLYWYLQKPGQSPQLLIYQMSNLASGVPDRFSSSGSGTDFTLRISRVEAEDVGVYYCAQNLEFPFTFGSGTKLEIKR
notes: expressed in CHO cells
- IC50; p-TrkA level by AlphaLISA in NGF-stimulated NIH3T3-TrkA stable cell line [1]: 0.0856 µg/mL
- EC50 [2]: < 1.5 µg/mL
- OD450 [4]: ~3 OD450
- EC50 (Mouse-TrKA protein): 0.0954 µg/mL
- EC50 [5]: 0.0575 µg/mL
- Kd [6]: 0.173 nM
- koff [6]: 0.000175 s⁻¹
- kon [6]: 1.01e+06 M⁻¹ s⁻¹
- IC50 [8]: 0.294 µg/mL
- IC50 [9]: 0.547 µg/mL

Now from value to binder:

- IC50; p-TrkA level by AlphaLISA in NGF-stimulated NIH3T3-TrkA stable cell line [1]: 0.129 µg/mL
- EC50 [2]: < 1.5 µg/mL
- OD450 [4]: ~3 OD450
- EC50 [5]: 0.211 µg/mL
- Kd [6]: 1.68 nM
- koff [6]: 0.000234 s⁻¹
- kon [6]: 139000 M⁻¹ s⁻¹
- IC50 [8]: 0.551 µg/mL
- IC50 [9]: 2.04 µg/mL
B2: 4H4 chimeric antibody (antibody, human IgG4 S228P, kappa, F234A L235A, V domains shown)
VH: EVQLQQSGPELVKPGASMKISCKASGYSFTGYTMNWVKQSHGKNLEWIGLINPYNGGTRYNQKFKGKATLTVDKSSSTAYMELLSLTSEDSAVYYCASSSYRNDGNWYFDVWGAGTTVTVSS
VL: DIVMTQSPAIMSASPGEKVTMTCSASSSVSYMHWYQQKSGTSPKRWIYDTSKLASGVPARFSGSGSGTSYSLTISSMETEDAATYYCQQWSSNPPTFGGGTKLELKR
notes: expressed in CHO cells

- IC50; p-TrkA level by AlphaLISA in NGF-stimulated NIH3T3-TrkA stable cell line [1]: 0.0437 µg/mL
- EC50 [2]: < 1.5 µg/mL
- OD450 [4]: ~3 OD450
- EC50 [5]: 0.0447 µg/mL
- Kd [6]: 0.178 nM
- koff [6]: 0.000279 s⁻¹
- kon [6]: 1.57e+06 M⁻¹ s⁻¹
- IC50 [8]: 0.11 µg/mL
- IC50 [9]: 0.369 µg/mL
B4: 27H3 chimeric antibody (antibody, human IgG4 S228P, kappa, F234A L235A, V domains shown)
VH: QVQLQQSGAELMKPGASVKISCKTTGYRFSSYWIEWVKQRPGHGLEWLGEILPGRGIINYNENFRGKATFTADTSSNTAYVQLSSLTSEDSAVYFCARTDPPYFGVWGAGTTVTVSS
VL: QAVVTQESALTTSPGETVTLTCRSSTGAVTISNYANWVQEKPDHLFTGLIGGTNNRPPGVPARFSGSLIGDKAALTITGAQTEDEAIYFCVLWYSNHWVFGGGTKLTVLR
notes: expressed in CHO cells
